Substitutions are numbered along the chain they refer to.
How the values were obtained:
HMGB1 [1] = target: T1, HMGB1 (Homo sapiens, UniProt P09429); assay: SPR, inhibition of free HMGB1 binding to chip-anchored DNA; conditions: 100 mM Hepes, 50 mM NaCl; 25 °C; unmodified DNA
T1 construct: full-length, expressed in and purified from human HEK293 cells; self-associates into oligomers
T1 sequence (P09429 1-215): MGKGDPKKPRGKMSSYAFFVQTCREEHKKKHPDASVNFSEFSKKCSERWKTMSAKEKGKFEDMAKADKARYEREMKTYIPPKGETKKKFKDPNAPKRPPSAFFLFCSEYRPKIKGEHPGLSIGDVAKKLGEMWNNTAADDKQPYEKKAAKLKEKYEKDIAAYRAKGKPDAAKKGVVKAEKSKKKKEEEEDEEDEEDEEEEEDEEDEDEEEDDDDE

HMGB1 [2] = target: T1, HMGB1; assay: isothermal titration calorimetry; format: binding; conditions: 100 mM Hepes, 50 mM NaCl; single-site model; allosteric ligand
HMGB1 [3] = target: T1, HMGB1; assay: SPR, inhibition of free HMGB1 binding to chip-anchored HMGB1; conditions: 100 mM Hepes, 50 mM NaCl; 25 °C; HMGB1 self-association
From the text: SPR, inhibition of free HMGB1 binding to chip-anchored HMGB1 on HMGB1 | inhibitory efficiency of F1,6P on free HMGB1 binding to chip‐anchored HMGB1

HMGB1 A-box (aa1–83) = target: T2, HMGB1 A-box (aa1–83) (Homo sapiens, UniProt P09429); assay: ITC of A-box with C15 peptide, with or without F1,6P; format: binding; conditions: 0.2 mM F1,6P; 100 mM Hepes, 50 mM NaCl; disruption of the A-box - C-tail peptide interaction
T2 construct: A-box domain aa1-83, purified from HEK293 cells; assayed with synthetic C15 peptide (HMGB1 C-tail aa200-214)
T2 sequence (P09429 1-83): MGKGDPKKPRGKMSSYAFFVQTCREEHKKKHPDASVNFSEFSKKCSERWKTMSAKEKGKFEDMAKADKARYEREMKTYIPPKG

[4] = target: GFP(C)-HMGB1-K43/K44A-GFP(N) construct; assay: split-GFP fluorescence complementation in HEK293 cells (Cytation cell imaging reader); conditions: each construct normalised to its own 0 mM value (1.0), read off a plot
[5] = target: T3, HMGB1 A-box (aa1–83), purified (UniProt P09429 1-83); assay: ITC; purified HMGB1 A-box in the cell titrated with free C-tail (15) peptide; 100 mM Hepes, 50 mM NaCl; with or without 0.2 mM F1,6P; single site binding model; conditions: both partners purified
T3 construct: HMGB1 A-box, aa1-83; also called HMG A-box; source: HEK293 cells, expressed and purified
T3 sequence (looked up): T2 sequence (P09429 1-83)

[6] = target: T4, HMGB1 A-box K43/44A, purified (UniProt P09429 1-83, K43/44A | K43/44A); assay: as above; conditions: both partners purified
T4 construct: HMGB1 A-box (aa1-83 as told for the wild-type A-box) with K43 and K44 changed to alanine; also called K43/44A A-box; source: HEK293 cells, expressed and purified
T4 sequence (looked up): T2 sequence (P09429 1-83) with K43A, K44A

O=P(O)(O)OC[C@H]1OC(O)(COP(=O)(O)O)[C@@H](O)[C@@H]1O (stereo partly drawn) [F1,6P]
IC50 (HMGB1 [1]): 14.1 µM | Kd (HMGB1 [2]): 28.6 µM | IC50 (HMGB1 [3]): 12.7 µM | ITC of A-box with C15 peptide, with or without F1,6P (HMGB1 A-box (aa1–83)): C15 peptide displayed good affinity for the A‐box, whereas the interaction was highly disrupted by F1,6P

GFP(C)-HMGB1(A-B)-linker-HMGB1(C)-GFP(N) fusion protein K43A; K44A
response (relative fluorescence intensity) ([4]; 1 mM F1,6P, parent: est. 0.83): 0.93 | response (relative fluorescence intensity) ([4]; 5 mM F1,6P, parent: est. 0.53): 0.92 | response (relative fluorescence intensity) ([4]; 10 mM F1,6P, parent: est. 0.38): 0.9

B1: C15 peptide (HMGB1 aa200–214) (peptide, UniProt P09429 200-214, looked up)
peptide: EEDEEDEDEEEDDDD
notes: HMGB1 acidic C-tail, aa200-214; also called C-tail (15) peptide; C-tail (15); source: synthetic peptide
binding result [5]: binds | binding result [6]: binds

Source: publication PMC9982576, “Nuclear Fructose‐1,6‐Bisphosphate Inhibits Tumor Growth and Sensitizes Chemotherapy by Targeting HMGB1” (Advanced Science, 2023)
